In patent publication US20260242478A1 (published 2026):

Experiments:
PSMA Fab (006 PSMA Fab) [1] = target: T1, PSMA Fab (006 PSMA Fab); experiment: phage binding ELISA; biotinylated PSMA Fab on neutravidin plate, clonal phage supernatant, anti-M13 HRP detection;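 further: wells were preincubated with blocking buffer either containing PSMA antigen or without it before crude phage supernatant was added, briefly incubated, then washed prior to detection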
T1 construct: also called Anti-PSMA Fab; anti-PSMA Fab
Method: (§1) Clonal phage were harvested as crude supernatants and screened via standard ELISAs. […] Prior to the addition of clonal phage. wells were incubated with blocking buffer and PSMA antigen or blocking buffer alone. Without washing or aspirating, clonal phage supernatants were then added to the wells and incubated for a short time. Wells were then washed followed by detection of bound phage using a horse radish conjugated anti-M13 antibody.

PSMA Fab (006 PSMA Fab) [2] = target: T2, PSMA Fab (006 PSMA Fab); experiment: clonal phage supernatant on biotinylated PSMA Fab captured on neutravidin plate, anti-M13-HRP detection;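 further: before phage were added, wells received PSMA antigen in blocking buffer or blocking buffer alone, with no wash in between, followed by a short phage incubation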
T2 construct: also called Anti-PSMA Fab
Method: as §1

PSMA Fab (006 PSMA Fab) [3] = target: T2, PSMA Fab (006 PSMA Fab); experiment: phage ELISA on captured PSMA Fab pre-incubated with the competitor PSMA antigen, anti-M13-HRP detection
Method: as §1

006 PSMA Fab [4] = target: T3, 006 PSMA Fab; experiment: clonal phage ELISA; biotinylated PSMA Fab captured on neutravidin plate, blocking buffer alone; bound phage detected with anti-M13 HRP
T3 construct: In the phage ELISA the PSMA Fab was biotinylated and captured on neutravidin coated plates; also called Anti-PSMA Fab
Method: as §1

006 PSMA Fab [5] = target: T3, 006 PSMA Fab; experiment: clonal phage ELISA; biotinylated PSMA Fab captured on neutravidin plate, wells pre-incubated with PSMA antigen as competitor; bound phage detected with anti-M13 HRP
Method: as §1

006 PSMA Fab [6] = target: T4, 006 PSMA Fab (biotinylated (site not stated)); experiment: clonal phage ELISA; biotinylated PSMA Fab on neutravidin plate, blocking buffer alone, anti-M13-HRP detection;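 further: crude clonal phage supernatants added without washing to wells preincubated with PSMA antigen or with blocking buffer alone, briefly incubated, then washed before bound phage detection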
T4 construct: also called Anti-PSMA Fab

006 PSMA Fab [7] = target: T4, 006 PSMA Fab; experiment: clonal phage ELISA; biotinylated PSMA Fab on neutravidin plate pre-incubated with PSMA antigen as competitor, anti-M13-HRP detection
Method: as §1

B1: Phage-3934 (Peptide-180 library clone) (peptide)
peptide: DIVECRPRWMCDGF
notes: Tested as clonal phage supernatant; not shown: fused to the pIII filament protein of the bacteriophage
Question: Which “Phage binding ELISA signal, Anti-PSMA Fab” value (PSMA Fab (006 PSMA Fab) [1]) does the source give for B1 here?
Answer: 0.936

B2: Phage-3933 (Peptide-180 library clone) (peptide)
peptide: YTQACTPSWMCHGF
notes: as for B1
Question: With B2 as the binder, how does the “Phage binding ELISA signal, Anti-PSMA Fab” value (PSMA Fab (006 PSMA Fab) [1]) read?
Answer: 0.96

B3: Phage-3929 (Peptide-180 library clone) (peptide)
peptide: TWSICEPRWMCEGF
notes: as for B1
Question: How did the “Phage binding ELISA signal, Anti-PSMA Fab” value (PSMA Fab (006 PSMA Fab) [1]) turn out when B3 was run?
Answer: 0.97

B4: Phage-3930 (Peptide-180 library clone) (peptide)
peptide: QLLRCVPPWMCEGF
notes: as for B1
Question: With B4 as the binder, how does the “Phage binding ELISA signal, Anti-PSMA Fab” value (PSMA Fab (006 PSMA Fab) [1]) read?
Answer: 0.97

B5: Phage-3921 (peptide)
peptide: GQIMCIPTWMCSGF
Question: How did the “Phage binding ELISA signal, Anti-PSMA Fab” value (PSMA Fab (006 PSMA Fab) [2]) turn out when B5 was run?
Answer: 0.98

Question: And the “phage binding ELISA signal, Anti-PSMA Fab in the presence of PSMA” value (PSMA Fab (006 PSMA Fab) [3])?
Answer: 0.0809

B6: Phage-3911 (peptide)
peptide: ESRACVPNWMCHGL
Question: Which “Phage binding ELISA signal, Anti-PSMA Fab” value (PSMA Fab (006 PSMA Fab) [2]) does the source give for B6 here?
Answer: 1.03

Question: What about the “phage binding ELISA signal, Anti-PSMA Fab in the presence of PSMA” value (PSMA Fab (006 PSMA Fab) [3]) of the same binder?
Answer: 0.06

B7: Phage-3943 (peptide)
peptide: DQVMCIPRWMCEGF
Question: With B7 as the binder, how does the “Phage binding ELISA signal, Anti-PSMA Fab” value (006 PSMA Fab [4]) read?
Answer: 0.904

Question: What about the “Phage binding ELISA signal, Anti-PSMA Fab with PSMA antigen” value (006 PSMA Fab [5]) of the same binder?
Answer: 0.0676

B8: Phage-3896 (peptide)
peptide: PDVHCVPRWMCDGL
notes: tested as crude clonal phage supernatant
Question: What does the source list for B8?
Answer: Phage binding ELISA signal, Anti-PSMA Fab (006 PSMA Fab [6]): 1.08; Phage binding ELISA signal, Anti-PSMA Fab in the presence of PSMA antigen (006 PSMA Fab [7]): 0.0633

B9: Phage-3949 (peptide)
peptide: GWVGCVPLWMCEGF
Question: For B9, which “Phage binding ELISA signal, Anti-PSMA Fab” value (006 PSMA Fab [4]) is on record?
Answer: 0.878

Question: What about the “Phage binding ELISA signal, Anti-PSMA Fab with PSMA antigen” value (006 PSMA Fab [5]) of the same binder?
Answer: 0.0698

B10: Phage-3912 (peptide)
peptide: ATVRCMPMWMCHGF
Question: For B10, which “Phage binding ELISA signal, Anti-PSMA Fab” value (PSMA Fab (006 PSMA Fab) [2]) is on record?
Answer: 1.03

Question: And the “phage binding ELISA signal, Anti-PSMA Fab in the presence of PSMA” value (PSMA Fab (006 PSMA Fab) [3])?
Answer: 0.0901

B11: Phage-3897 (peptide)
peptide: LTLKCAPAWMCNGF
notes: as for B8
Question: For B11, which “Phage binding ELISA signal, Anti-PSMA Fab” value (006 PSMA Fab [6]) is on record?
Answer: 1.08

Question: And the “Phage binding ELISA signal, Anti-PSMA Fab in the presence of PSMA antigen” value (006 PSMA Fab [7])?
Answer: 0.0619

B12: Phage-3937 (Peptide-180 library clone) (peptide)
peptide: LTPVCRPAWMCLEL
notes: as for B1
Question: B12 was tested. Which “Phage binding ELISA signal, Anti-PSMA Fab” value (PSMA Fab (006 PSMA Fab) [1]) did it give?
Answer: 0.922

B13: Phage-3927 (Peptide-180 library clone) (peptide)
peptide: SMQKCVPSWMCAGF
notes: as for B1
Question: For B13, which “Phage binding ELISA signal, Anti-PSMA Fab” value (PSMA Fab (006 PSMA Fab) [1]) is on record?
Answer: 0.972

B14: Phage-3919 (peptide)
peptide: MSPMCSPSWMCMGF
Question: How did the “Phage binding ELISA signal, Anti-PSMA Fab” value (PSMA Fab (006 PSMA Fab) [2]) turn out when B14 was run?
Answer: 0.993

Question: What about the “phage binding ELISA signal, Anti-PSMA Fab in the presence of PSMA” value (PSMA Fab (006 PSMA Fab) [3]) of the same binder?
Answer: 0.0911

B15: Phage-3950 (peptide)
peptide: ILPRCEPYWMCTGL
Question: Which results are given for B15?
Answer: Phage binding ELISA signal, Anti-PSMA Fab (006 PSMA Fab [4]): 0.872; Phage binding ELISA signal, Anti-PSMA Fab with PSMA antigen (006 PSMA Fab [5]): 0.0634

B16: Phage-3924 (peptide)
peptide: YNQYCTPLWMCEGF
Question: How did the “Phage binding ELISA signal, Anti-PSMA Fab” value (PSMA Fab (006 PSMA Fab) [2]) turn out when B16 was run?
Answer: 0.977

Question: What about the “phage binding ELISA signal, Anti-PSMA Fab in the presence of PSMA” value (PSMA Fab (006 PSMA Fab) [3]) of the same binder?
Answer: 0.0796

B17: Phage-3914 (peptide)
peptide: FGVKCEPRWMCNGF
Question: B17 was tested. Which “Phage binding ELISA signal, Anti-PSMA Fab” value (PSMA Fab (006 PSMA Fab) [2]) did it give?
Answer: 1.02

Question: And the “phage binding ELISA signal, Anti-PSMA Fab in the presence of PSMA” value (PSMA Fab (006 PSMA Fab) [3])?
Answer: 0.0693

B18: Phage-3928 (Peptide-180 library clone) (peptide)
peptide: WDLLCSPPWMCAGM
notes: as for B1
Question: Which “Phage binding ELISA signal, Anti-PSMA Fab” value (PSMA Fab (006 PSMA Fab) [1]) does the source give for B18 here?
Answer: 0.971

B19: Phage-3935 (Peptide-180 library clone) (peptide)
peptide: PGFWCQPKWMCEGF
notes: as for B1
Question: B19 was tested. Which “Phage binding ELISA signal, Anti-PSMA Fab” value (PSMA Fab (006 PSMA Fab) [1]) did it give?
Answer: 0.93

B20: Phage-3940 (peptide)
peptide: PLTSCVPQWMCYGF
Question: For B20, which “Phage binding ELISA signal, Anti-PSMA Fab” value (006 PSMA Fab [4]) is on record?
Answer: 0.913

Question: And the “Phage binding ELISA signal, Anti-PSMA Fab with PSMA antigen” value (006 PSMA Fab [5])?
Answer: 0.0873

B21: Phage-3942 (peptide)
peptide: GDIQCRPLWMCDGL
Question: With B21 as the binder, how does the “Phage binding ELISA signal, Anti-PSMA Fab” value (006 PSMA Fab [4]) read?
Answer: 0.907

Question: What about the “Phage binding ELISA signal, Anti-PSMA Fab with PSMA antigen” value (006 PSMA Fab [5]) of the same binder?
Answer: 0.128

B22: Phage-3925 (Peptide-180 library clone) (peptide)
peptide: NERFCEPAWMCHGF
notes: as for B1
Question: How did the “Phage binding ELISA signal, Anti-PSMA Fab” value (PSMA Fab (006 PSMA Fab) [1]) turn out when B22 was run?
Answer: 0.977

B23: Phage-3938 (Peptide-180 library clone) (peptide)
peptide: MQDFCKPLWMCSGF
notes: as for B1
Question: How did the “Phage binding ELISA signal, Anti-PSMA Fab” value (PSMA Fab (006 PSMA Fab) [1]) turn out when B23 was run?
Answer: 0.921

B24: Phage-3951 (peptide)
peptide: TVRSCTPPWMCEGF
Question: What does the source list for B24?
Answer: Phage binding ELISA signal, Anti-PSMA Fab (006 PSMA Fab [4]): 0.871; Phage binding ELISA signal, Anti-PSMA Fab with PSMA antigen (006 PSMA Fab [5]): 0.0856
